In article PMC10875768, “Structural basis for antibody recognition of the proximal MUC16 ectodomain” (Journal of Ovarian Research, 2024):
Where a chain is given by its changes, count along the chain named. Numbers in names are those of the source.

Columns and labels:
[1] = target: T1, MBP-MUC16^ecto (maltose binding protein fused to the 26-residue MUC16 ectodomain segment) (Homo sapiens); experiment: pull-down; MBP pull-down on amylose resin; MBP-tagged MUC16-target as bait (~20 µg), scFv as prey at 2-fold molar excess; 50 mM Tris-HCl pH 8.0, 400 mM NaCl, 1 mM EDTA, 1 mM DTT, 4 °C, 3 h; three washes; SDS-PAGE; conditions: both partners purified
T1 construct: linker between MBP and the MUC16 segment; Cloned into pMal-C5X (NEB); Only one of the two PDB entries holds this chain; also called MBP-fused MUC16-target; MBP-tagged MUC16-target (wt); source: E. coli BL21-RIL (DE3), purified (amylose resin, Superdex-75); not shown: MBP, N-terminal, kept
T1 chain: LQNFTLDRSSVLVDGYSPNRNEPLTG

[2] = target: T2, native glycosylated MUC16 expressed on cancer cells (OVCAR3, SKBR3) (human (endogenous in OVCAR3 and SKBR3), UniProt Q8WXI7, glycosylated (native)); experiment: immunostaining of cells or tissue; Alexa-conjugated scFv on fixed cells; Alexa-350-WGA as membrane marker; OVCAR3 and SKBR3 (MUC16-expressing), HEK293T/17 and SKOV3 as controls; conditions: one partner purified
T2 construct: MUC16 (mucin 16), as expressed on the surface of OVCAR3 and SKBR3 cells; also called Mucin 16; cellular MUC16; source: endogenous, on OVCAR3 and SKBR3 cells

[3] = target: T1, MBP-MUC16^ecto (maltose binding protein …); experiment: ITC; ITC200, 23 °C; scFv (12.8 µM) in the cell, MUC16 peptide (144 µM) or MBP-MUC16^ecto (130 µM) in the syringe; 50 mM Tris pH 8.0, 400 mM NaCl (the results say pH 7.4); average of three experiments; conditions: both partners purified
[4] = target: T3, commercially synthesized MUC16^ecto peptide (26 residues) (Homo sapiens); experiment: as above; conditions: both partners purified
T3 construct: also called synthesized MUC16-target; the synthesized peptide; source: synthetic peptide (commercially synthesized)
T3 chain: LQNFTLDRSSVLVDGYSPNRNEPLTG

B1: 4H11-scFv with VH double mutations S53A/D106A (scFv, V domains shown)
VH: EVKLQESGGGFVKPGGSLRVSCAASGFTFSSYAMSWVRLAPEMRLEWVATISAAGGYIFYSDSVQGRFTISRDNAKNSLHLQMGSLRSGDTAMYYCARQGFGNYGAYYAMDYWGQGTTVTVSS
VL: DIELTQSPSSLAVSAGERVTMNCKSSQSLLNSRTRKNQLAWYQQKPGQSPELLIYWASTRQSGVPDRFSGSGSGTDFTLTISSVQAEDVAVYYCQQSYNLLTFGPGTKLEIK
notes: as the VH of m1 (hVH2, E1-S123); linker (GGGGS)5; as the VL of m1 (hVL1, D1-R113 = scFv residues 149-261); Made by QuikChange mutagenesis of m1; also called scFv mutant S53A/D106A; source: ExpiCHO-S, transfected (same lentivector as the wild type)
binding result [1]: binds

B2: 4H11-scFv with VL double mutations Y246A/N247A (scFv, V domains shown)
VH: B1 VH with A53S, A106D
VL: B1 VL with Y98A, N99A
notes: as the VH of m1 (hVH2, E1-S123); linker (GGGGS)5; as the VL of m1 (hVL1, D1-R113) with the stated changes. numbers count on: the whole scFv (VL begins at D149); Made by QuikChange mutagenesis of m1; also called scFv mutant Y246A/N247A; source: ExpiCHO-S, transfected (same lentivector as the wild type)
binding result [1]: binds

B3: Alexa-fluorescence conjugated 4H11-scFv (scFv, V domains shown)
VH: B1 VH with A53S, A106D
VL: B1 VL
notes: as the VH of m1 (hVH2, E1-S123); linker (GGGGS)5; as the VL of m1 (hVL1, D1-R113 = scFv residues 149-261); also called Alexa-4H11-scFv; Alexa-labeled scFv; source: purified 4H11-scFv labeled with Alexa Fluor 488 carboxylic acid, further purified by Superdex-75
binding result [2]: binds

B4: 4H11-scFv (H2L1), VH-linker (GGGGS)5-VL (scFv, V domains shown)
VH: B1 VH with A53S, A106D
VL: B1 VL
notes: humanized 4H11 VH (hVH2 of H2L1), E1-S123; linker (GGGGS)5, residues 124-148 of the scFv; humanized 4H11 VL (hVL1 of H2L1), D1-R113, which are residues 149-261 of the scFv; N-terminal signal peptide in the construct for secretion; also called h4H11-scFv; H2L1 4H11-scFv
Kd [3]: ~2 nM
Kd [4]: ~1.4 nM
